Values of other authors as cited in article PMC5331060.
Read-outs that look alike come from different tables or passages of the source.

Key:
[1] = biological target: beta clamp (Escherichia coli) (UniProt P0A988)
[2] = biological target: beta clamp (Escherichia coli) (UniProt P0A988); remark: listed apart in the source

UniProt P0A988, sequence (P0A988 whole entry): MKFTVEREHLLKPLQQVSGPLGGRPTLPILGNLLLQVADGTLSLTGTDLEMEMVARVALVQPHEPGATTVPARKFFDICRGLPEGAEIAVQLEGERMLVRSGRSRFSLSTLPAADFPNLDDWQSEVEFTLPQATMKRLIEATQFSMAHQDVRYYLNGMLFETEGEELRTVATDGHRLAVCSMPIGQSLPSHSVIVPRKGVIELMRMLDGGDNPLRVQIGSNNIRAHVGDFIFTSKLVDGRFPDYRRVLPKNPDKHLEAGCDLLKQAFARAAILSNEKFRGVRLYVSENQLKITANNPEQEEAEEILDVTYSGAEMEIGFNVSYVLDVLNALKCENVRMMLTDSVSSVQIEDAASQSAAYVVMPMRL

Row | Substance | Kd [1] [nM] | Kd [2] [nM]
1 | Pol III alpha (from UniProt P10443) | 108 | 
2 | DinB (Pol IV) (from UniProt Q47155) |  | 460
